Source: patent US20130196320A1, “METHOD FOR IMPROVING CLEAVAGE OF DNA BY ENDONUCLEASE SENSITIVE TO METHYLATION” (CELLECTIS, priority 2010, published 2013)
Values joined by “and” are separate entries in the source; they are usually repeats but may differ in a detail not shown here. Identical values can stand only once. Like-named read-outs stand apart in the source and are kept apart here.

Experiments:
[1] = tested on: C1234 DNA target; assay: In vitro single turn over cleavage assay with C1234 duplexes; assay type: biochemical
Procedure: FIG. 5: In vitro cleavage of unmethylated or methylated C1234 by I-Cre I wild type. A constant amount of C 1234 duplex (50 nM) was incubated with an excess of I-Cre I (1.5 μM, final concentration) in the reaction buffer (10 mM Tris-HCl, 150 mM NaCl, pH8) at 37° C. Cleavage reaction was triggered by the addition of MgCl2 and then stopped after different time lengths by the addition of the stop buffer. This was followed by one hour of incubation at 37° C. to digest I-Cre I and release free DNA molecules. Cleaved and uncleaved DNA products were separated by PAGE using a TGX Any kD precast gel (Bio-Rad), stained with SYBR Green and then quantified using Quantity One software (Bio-Rad). Disappearance of substrate (uncleaved DNA) is plotted as a function of time.
To investigate the influence of C1234 methylation on the nuclease activity of I-Cre I, in vitro single turn over cleavage assays were performed with either unmethylated or methylated C1234 duplexes (unmethylated C1234 composed of SEQ ID NO: 31+SEQ ID NO: 32, C1234_Me full composed of SEQ ID NO: 35+SEQ ID NO: 38, C1234_Me-6a/-5b composed of SEQ ID NO: 33+SEQ ID NO: 36, C1234_Me-3a/-2b composed of SEQ ID NO: 34+SEQ ID NO: 37, C1234_Me-3a composed of SEQ ID NO: 34+SEQ ID NO: 32, C1234_Me-2b composed of SEQ ID NO: 31+SEQ ID NO: 37, respectively). A constant amount of C1234 duplex (50 nM) was incubated with an excess of I-Cre I (1.5 μM, final concentration) in the reaction buffer (10 mM Tris-HCl, 150 mM NaCl, pH8) at 37° C. Cleavage reaction was triggered by the addition of MgCl2 and then stopped after different time lengths by the addition of the stop buffer (45% glycerol, 95 mM EDTA, 1.5% (w/v) SDS, 1.5 mg/mL proteinase K and 0.048% (w/v) bromophenol blue, final concentrations). This was followed by one hour incubation at 37° C. to digest I-Cre I and release free DNA molecules. Cleaved and uncleaved DNA products were separated by PAGE using a TGX Any kD precast gel (Bio-Rad), stained with SYBR Green and then quantified using Quantity One software (Bio-Rad).
To test the influence of C 1234 methylation on I-Cre I cleavage activity, single turn over cleavage assays in vitro were performed with unmethylated (composed of SEQ ID NO: 31+SEQ ID NO: 32) or with different methylated forms of C1234 (FIG. 5). In these assays C1234 was premixed to a large excess of recombinant meganucleases before addition of MgCl2. After different time lengths, the reaction was quenched by addition of a stop buffer, the remaining substrate was separated from the reaction product and then quantified. In these conditions, substrate disappearance was a first order process. The rate constant of this process corresponded to the turn over number (kcat) of the meganuclease. Turn over number measurement was not affected by affinity differences between methylated and unmethylated C1234 for I-Cre I because in our experimental conditions, the totality of C1234 was bound to the meganuclease at the beginning of reaction. In addition, this measurement was not affected by the rate limiting step of product release (Wang J, Kim H H, Yuan X, Herrin D L: Purification, biochemical characterization and protein-DNA interactions of the I-CreI endonuclease produced in Escherichia coli. Nucleic Acids Res 1997, 25:3767-3776) because the complex I-Cre I:cleaved C1234 product was artificially disrupted by the proteinase K and SDS present in the stop buffer.

[2] = tested on: C1221 DNA target; assay: In vitro cleavage assay with C1221 duplex, increasing meganuclease concentration; assay type: biochemical
Procedure: FIG. 2: In vitro cleavage of unmethylated or methylated C1221 by I-CreI. A constant amount of C1221 (50 nM) was incubated with increasing concentrations of I-CreI (0 to 2 μM) in reaction buffer (10 mM Tris-HCl, 150 mM NaCl, 10 mM MgCl2, pH8) for an hour at 37° C. The reaction was stopped and the remaining uncleaved C1221 was quantify and plotted as function of I-CreI concentration.
FIG. 3: In vitro cleavage of unmethylated or methylated C1221 by I-CreI D75N. 50 nM C1221 containing either 0, 1, 2 or 3 methylated CG was incubated with increasing concentrations of I-CreI D75N (0 to 2 μM) in reaction buffer (10 mM Tris-HCl, 150 mM NaCl, 10 mM MgCl2, pH8) for an hour at 37° C. The reaction was stopped and cleaved and uncleaved C1221 (top and bottom panel respectively) were quantify and plotted as function of I-CreI D75N concentration.
To investigate the influence of C1221 methylation on the nuclease activity of I-CreI, an in vitro cleavage assay with either unmethylated or fully methylated C1221 duplex (SEQ ID NOs: 4-5 and 12-13 respectively) was performed. A constant amount of C1221 duplex (50 nM) was incubated with increasing concentration of I-CreI (0 to 2 μM) in a total volume of 25 μL of reaction buffer (10 mM Tris-HCl, 150 mM NaCl, 10 mM MgCl2, pH8). Cleavage reaction was allowed to proceed 1 hour at 37° C. and then stopped by addition of 5 μL of 6× stop buffer (45% glycerol, 95 mM EDTA, 1.5% (w/v) SDS, 1.5 mg/mL proteinase K and 0.048% (w/v) bromophenol blue) followed by an hour incubation at 37° C. Cleaved and uncleaved DNA products were separated by PAGE using a TGX Any kD precast gel (Bio-Rad), stained with SYBR Green and then quantified using Quantity One software (Bio-Rad).
To investigate the influence of C1221 methylation on the nuclease activity of I-CreI D75N, in vitro cleavage assay with C1221 duplex containing either 0, 1, 2 or 3 methylated CG (SEQ ID NOs: 4-5, 6-7, 8-9, 10-11 respectively) was performed, according to the procedure described for I-CreI wild type.

B1: I-CreI: wild-type I-CreI meganuclease (… homing endonuclease), SEQ ID NO: 1, recombinant Cterm His-tag (protein, listed as Chlamydomonas reinhardtii)
chain: MNTKYNKEFLLYLAGFVDGDGSIIAQIKPNQSYKFKHQLSLTFQVTQKTQRRWFLDKLVDEIGVGYVRDRGSVSDYILSEIKPLHNFLTQLQPFLKLKQKQANLVLKIIEQLPSAKESPDKFLEVCTWVDQIAALNDSKTRKTTSETVRAVLDSLSEKKKSSP
modifications: C-terminal His-tag
B1 was tested, and the kcat ([1]; C1234_Me full (fully methylated)) was <1.7e-06 s⁻¹, the kcat ([1]; C1234_Me-2b) was <1.7e-06 s⁻¹ and the kcat ([1]; C1234_Me-3a) was 0.00095 ± 0.0001 s⁻¹. For the same molecule, the kcat ([1]; C1234_Me-3a/-2b) was 3.3e-06 ± 5e-05 s⁻¹, the kcat ([1]; C1234_Me-6a/-5b) was 0.00033 ± 0.00012 s⁻¹ and the “effect of methylation on catalytic activity” value (“effect of methylation” below) ([1]; C1234 methylated in position −2b) was “almost totally inhibited it”. The “effect of methylation” value ([1]; C1234 methylated in position −3a) was “didn't affect 1-Cre I catalytic activity”, the “effect of methylation” value ([1]; C1234 methylated in positions −3a and −2b (within the cleavage region)) was “strongly affected the catalytic activity of I-Cre I” and the “effect of methylation” value ([1]; C1234 methylated in positions −6a/−5b (outside the cleavage region)) was “did not affect I-Cre I catalytic activity”. For the same molecule, the kcat ([1]; unmethylated C1234) was 0.000417 s⁻¹ and 0.000417 ± 3.3e-05 s⁻¹, the EC50 ([2]; fully methylated C1221, 1 hour at 37° C., read-out: C50 (concentration of I-CreI needed to cleave 50% of C1221)) was > 2000 nM and the “I-CreI concentration at which C1221 is totally cleaved” value ([2]; unmethylated C1221) was 250 nM. For the same molecule, the EC50 ([2]; unmethylated C1221, 1 hour at 37° C., read-out: C50 (concentration of meganuclease needed to cleave 50% of C1221)) was 100 nM.
